Laboratory results taken from patent publication US20240033244A1, “COMPOSITIONS AND METHODS FOR INHIBITING YTHDF1” (SHANGHAI INSTITUTE OF MATERIA MEDICA, CHINESE ACADEMY OF …, priority 2020, published 2024).

Assays:
B16-OVA melanoma = experiment: B16-OVA tumor growth in wild-type mice; type: in vivo, mouse; conditions: 5×10^5 B16-OVA in C57BL/6 mice, 10 μM i.v. 9 days after implantation (FIG. 19)
[1] = molecular target: T1, YTHDF1 C-terminal truncation (UniProt Q9BYJ9 SEQ:3-174); experiment: FP; value only in figure; affinity not influenced vs wild type; conditions: tags: GST tag removed; label: 5'-FAM
T1 chain: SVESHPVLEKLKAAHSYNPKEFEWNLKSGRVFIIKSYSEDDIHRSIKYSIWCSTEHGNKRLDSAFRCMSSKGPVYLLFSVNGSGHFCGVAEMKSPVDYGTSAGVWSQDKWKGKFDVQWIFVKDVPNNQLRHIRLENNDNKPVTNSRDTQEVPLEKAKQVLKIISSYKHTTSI

YTHDF1 (361-559) H528A = molecular target: T2, YTHDF1 (361-559) H528A (UniProt Q9BYJ9 SEQ:3-201, H528A); experiment: as above; conditions: tags: GST tag removed; label: 5'-FAM
T2 sequence: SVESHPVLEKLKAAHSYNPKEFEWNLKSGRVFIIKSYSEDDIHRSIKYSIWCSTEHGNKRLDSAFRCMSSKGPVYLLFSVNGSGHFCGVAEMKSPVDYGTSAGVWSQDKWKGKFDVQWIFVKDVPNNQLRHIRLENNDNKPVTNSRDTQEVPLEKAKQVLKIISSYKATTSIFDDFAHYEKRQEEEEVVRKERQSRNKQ

YTHDF1 (361-559) F382A = molecular target: T3, YTHDF1 (361-559) F382A (UniProt Q9BYJ9 SEQ:3-201, F382A); experiment: as above; conditions: tags: GST tag removed; label: 5'-FAM
T3 sequence: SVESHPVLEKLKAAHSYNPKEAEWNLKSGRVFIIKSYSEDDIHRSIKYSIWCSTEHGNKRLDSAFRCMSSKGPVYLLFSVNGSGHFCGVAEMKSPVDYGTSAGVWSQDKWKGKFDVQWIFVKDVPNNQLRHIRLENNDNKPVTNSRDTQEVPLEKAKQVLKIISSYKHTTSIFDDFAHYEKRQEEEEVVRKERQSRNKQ

YTHDF1 (361-559) N378A = molecular target: T4, YTHDF1 (361-559) N378A (UniProt Q9BYJ9 SEQ:3-201, N378A); experiment: as above; conditions: tags: GST tag removed; label: 5'-FAM
T4 sequence: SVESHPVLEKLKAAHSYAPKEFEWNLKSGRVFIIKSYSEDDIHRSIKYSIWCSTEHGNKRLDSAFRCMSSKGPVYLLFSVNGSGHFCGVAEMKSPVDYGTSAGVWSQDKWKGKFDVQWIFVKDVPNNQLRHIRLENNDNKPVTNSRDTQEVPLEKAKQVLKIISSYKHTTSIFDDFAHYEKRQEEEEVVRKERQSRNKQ

YTHDF1 (361-559) F480A = molecular target: T5, YTHDF1 (361-559) F480A (UniProt Q9BYJ9 SEQ:3-201, F480A); experiment: as above; conditions: tags: GST tag removed; label: 5'-FAM
T5 sequence: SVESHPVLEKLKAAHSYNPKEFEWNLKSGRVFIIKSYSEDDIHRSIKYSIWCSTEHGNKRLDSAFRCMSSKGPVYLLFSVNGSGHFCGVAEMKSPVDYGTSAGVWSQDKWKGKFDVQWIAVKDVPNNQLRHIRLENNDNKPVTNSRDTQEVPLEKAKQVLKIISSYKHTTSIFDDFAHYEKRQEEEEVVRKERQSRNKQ

YTHDF1 (361-559) W384A = molecular target: T6, YTHDF1 (361-559) W384A (UniProt Q9BYJ9 SEQ:3-201, W384A); experiment: as above; conditions: tags: GST tag removed; label: 5'-FAM
T6 sequence: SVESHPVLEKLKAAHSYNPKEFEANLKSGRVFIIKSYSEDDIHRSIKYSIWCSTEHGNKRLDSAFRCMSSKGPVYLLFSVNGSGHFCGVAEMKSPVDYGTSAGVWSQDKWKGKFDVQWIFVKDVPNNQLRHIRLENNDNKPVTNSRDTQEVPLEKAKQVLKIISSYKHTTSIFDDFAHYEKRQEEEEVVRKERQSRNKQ

[2] = molecular target: T7, YTHDF1 (361-559), YTH domain (UniProt Q9BYJ9 SEQ:3-201); experiment: FP; value only in figure; 20 mM Hepes pH 7.4, 50 mM NaCl, 0.01% tween 20, 5% glycerol, 4 C; conditions: tags: GST tag removed; E. coli BL21(DE3); label: 5'-FAM
T7 sequence: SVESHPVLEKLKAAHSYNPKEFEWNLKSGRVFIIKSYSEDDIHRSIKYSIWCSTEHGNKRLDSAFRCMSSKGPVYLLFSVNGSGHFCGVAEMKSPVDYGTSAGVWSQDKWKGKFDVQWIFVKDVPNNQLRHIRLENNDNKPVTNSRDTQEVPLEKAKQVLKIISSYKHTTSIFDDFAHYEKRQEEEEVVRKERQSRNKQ

YTHDF1 (361-559) Y397A = molecular target: T8, YTHDF1 (361-559) Y397A (UniProt Q9BYJ9 SEQ:3-201); experiment: FP; binding seen through SAA inhibition assay; affinity not given; conditions: tags: GST tag removed; label: 5'-FAM
T8 chain: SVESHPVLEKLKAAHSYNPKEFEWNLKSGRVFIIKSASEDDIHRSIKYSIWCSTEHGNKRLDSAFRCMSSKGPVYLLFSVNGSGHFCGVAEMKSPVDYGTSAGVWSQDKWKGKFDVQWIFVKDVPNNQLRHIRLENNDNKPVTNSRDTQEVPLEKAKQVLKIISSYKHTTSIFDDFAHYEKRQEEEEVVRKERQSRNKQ

YTHDF1 (361-559) K395A = molecular target: T9, YTHDF1 (361-559) K395A (UniProt Q9BYJ9 SEQ:3-201); experiment: as above; conditions: tags: GST tag removed; label: 5'-FAM
T9 chain: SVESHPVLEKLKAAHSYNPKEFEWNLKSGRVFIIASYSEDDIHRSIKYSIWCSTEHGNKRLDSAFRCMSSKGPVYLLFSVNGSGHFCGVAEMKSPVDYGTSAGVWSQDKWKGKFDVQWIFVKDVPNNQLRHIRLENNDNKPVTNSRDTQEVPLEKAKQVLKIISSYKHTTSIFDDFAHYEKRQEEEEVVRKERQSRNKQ

YTHDF1 (361-559) R506A = molecular target: T10, YTHDF1 (361-559) R506A (UniProt Q9BYJ9 SEQ:3-201); experiment: as above; conditions: tags: GST tag removed; label: 5'-FAM
T10 chain: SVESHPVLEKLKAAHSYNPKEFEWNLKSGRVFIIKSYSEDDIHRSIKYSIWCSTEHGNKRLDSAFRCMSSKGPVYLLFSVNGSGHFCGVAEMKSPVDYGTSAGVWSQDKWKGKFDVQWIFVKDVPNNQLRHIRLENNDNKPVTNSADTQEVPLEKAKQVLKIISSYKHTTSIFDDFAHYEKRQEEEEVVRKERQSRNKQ

YTHDF1 (361-559) C412A = molecular target: T11, YTHDF1 (361-559) C412A (UniProt Q9BYJ9 SEQ:3-201); experiment: as above; conditions: tags: GST tag removed; label: 5'-FAM
T11 chain: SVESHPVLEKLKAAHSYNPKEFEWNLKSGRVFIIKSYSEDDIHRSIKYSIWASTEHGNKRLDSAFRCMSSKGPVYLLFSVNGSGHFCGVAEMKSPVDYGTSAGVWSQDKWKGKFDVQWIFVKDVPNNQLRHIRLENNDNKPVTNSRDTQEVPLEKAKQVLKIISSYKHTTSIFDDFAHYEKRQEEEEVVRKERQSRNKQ

His-YTHDF1 (361-559) = molecular target: T12, His-YTHDF1 (361-559) (UniProt Q9BYJ9 SEQ:40-238); experiment: AlphaScreen; 20 mM Hepes pH 7.4, 150 mM NaCl, BSA, TritonX-100; binding inhibited by SAA; conditions: tags: His; label: 5'-biotin
T12 sequence: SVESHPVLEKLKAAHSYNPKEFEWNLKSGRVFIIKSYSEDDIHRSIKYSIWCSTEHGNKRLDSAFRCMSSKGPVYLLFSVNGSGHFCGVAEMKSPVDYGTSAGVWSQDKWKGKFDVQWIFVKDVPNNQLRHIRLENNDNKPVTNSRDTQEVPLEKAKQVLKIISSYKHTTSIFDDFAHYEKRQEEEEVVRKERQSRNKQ
Protocol: Then 10 nM biotinylated m⁶A-containing mRNA (5′-biotin-[…] (m⁶A) CUGUG-3′) (SEQ ID NO: 15) was added to bind with YTHDF1 (361-559), and unbiotinylated m⁶A-containing mRNA was used as the positive control. Before Alpha signal detection, streptavidin donor beads and anti-His acceptor beads were added into the white assay plate in subdued light (OptiPlate™-384, PerkinElmer) and incubated at 4° C. for 1 hour to ensure sufficient binding between biotin tag and streptavidin donor beads, as well as that between His tag and anti-His acceptor beads. Then the Alpha signal was detected on Envision Readers (PerkinElmer).

O=C(/C=C/c1ccc(O)c2oc(-c3ccc(O)c(O)c3)cc12)O[C@H](Cc1ccc(O)c(O)c1)C(=O)O [SAC, Salvianolic Acid C]
tumor growth was much slower: tumor growth versus DMSO (B16-OVA melanoma)

UUCUUCUGUGGACUGUG (ssRNA, m6A at position 12 (UUCUUCUGUGG(m6A)CUGUG)) [5'-FAM m6A-containing mRNA]
binds: binding result [1] | binding result (YTHDF1 (361-559) H528A) | binding result (YTHDF1 (361-559) F382A) | binding result (YTHDF1 (361-559) N378A) | binding result (YTHDF1 (361-559) F480A) | binding result (YTHDF1 (361-559) W384A) | binding result [2] | binding result (YTHDF1 (361-559) Y397A) | binding result (YTHDF1 (361-559) K395A) | binding result (YTHDF1 (361-559) R506A) | binding result (YTHDF1 (361-559) C412A)

UUCUUCUGUGGACUGUG (ssRNA, m6A at position 12 (UUCUUCUGUGG(m6A)CUGUG)) [5'-biotin m6A-containing mRNA]
binds: binding result (His-YTHDF1 (361-559))
